According to PMC10978960, “Structure, function and substrate preferences of archaeal S-adenosyl-L-homocysteine hydrolases” (Communications Biology, 2024):

B1: S-adenosyl-L-homocysteine hydrolase from Pyrococcus furiosus (enzyme)
chain: MDCGKDYCVKDLSLAEEGWKKIDWVSRFMPVLQYIKREFEEKKPFKGVRIAATLHLEMKTAFLLLTLKAGGAEVSAAASNPLSTQDDVVAALAKAGVKVYAIRGESREQYYEFMHKALDIRPNIIIDDGADMISLVHKERQEMLDEIWGGSEETTTGVIRLRAMEKAGILKFPVIAVNDSYMKYLFDNRYGTGQSTWDGIMRATNLLIAGKNVVVVGYGWCGRGIAMRARGLGATVIVVEVDPIKALEARMDGFLVMDMKEAAKIGDIFVTATGNIKCIRREHFELMKDGAIMANAGHFDVEIWKPDLEKLAVEINNPRPNVTEYKLKDGRRLYLLADGRLVNLVAADGHPAEIMDMSFALQAKAAEYIKDNHERLEPKVYILPREIDEMVARIKLESMGIKIEELTEEQKKYLESWEHGT
notes: S-adenosyl-L-homocysteine hydrolase (SAHH) of Pyrococcus furiosus; gene bought as a synthetic DNA string and cloned into pET28a(+); The tag counts as kept because protein concentration was determined with the molecular weight including the His6-tag and no cleavage step is described; One sample was heated at 95 °C for 15 min before crystallisation (8QNO); also called PfuSAHH; SAHH; source: E. coli …
B2: S-adenosyl-L-homocysteine hydrolase from Methanococcus maripaludis (enzyme)
chain: MSNVKDMSLAPSGHLKMEWAKRHMPVLCRIAEEFKNDKPFEGLTIGMALHLEAKTAILAETLLEGGAKIVITGCNPLSTQDDVAAACVEKGMEVYAWRGETNEEYYENLNKVLDSNPDIIIDDGADLIFLIHTERTELIGKIMGGCEETTTGIIRLKSMAEEGALKFPVVNVNDAYTKHLFDNRYGTGQSAMDGIIRTTNLLIAGKNVVVGGYGWCGRGVASRAAGHGANVIITEVNPIRALEAKMDGFTVLKMEEAAKIGDIFVTTTGCKDILRMEHFLLMKDGAVLSNAGHFDNEINKNDLKELSKSVKEARFNIEEYDLGNKKIYLLGEGRLVNLACADGHPCEVMDMSFANQALSAKFIKENKGKLENEVYEIPYEQDFKIALLKLHSMGADIDELSPEQRKYLSDWKEGT
notes: S-adenosyl-L-homocysteine hydrolase (SAHH) of Methanococcus maripaludis; gene bought as a synthetic DNA string and cloned into pET28a(+); The tag counts as kept because protein concentration was determined with the molecular weight including the His6-tag and no cleavage step is described; also called MmaSAHH; SAHH; source: E. coli BL21-Gold(DE3), purified (nickel-NTA, PD-10 desalting)
B3: S-adenosyl-L-homocysteine hydrolase from Mus musculus (enzyme)
chain: MSDKLPYKVADIGLAAWGRKALDIAENEMPGLMRMREMYSASKPLKGARIAGCLHMTVETAVLIETLVALGAEVRWSSCNIFSTQDHAAAAIAKAGIPVFAWKGETDEEYLWCIEQTLHFKDGPLNMILDDGGDLTNLIHTKYPQLLSGIRGISEETTTGVHNLYKMMSNGILKVPAINVNDSVTKSKFDNLYGCRESLIDGIKRATDVMIAGKVAVVAGYGDVGKGCAQALRGFGARVIITEIDPINALQAAMEGYEVTTMDEACKEGNIFVTTTGCVDIILGRHFEQMKDDAIVCNIGHFDVEIDVKWLNENAVEKVNIKPQVDRYWLKNGRRIILLAEGRLVNLGCAMGHPSFVMSNSFTNQVMAQIELWTHPDKYPVGVHFLPKKLDEAVAEAHLGKLNVKLTKLTEKQAQYLGMPINGPFKPDHYRY
notes: S-adenosyl-L-homocysteine hydrolase (SAHH, adenosylhomocysteinase) of Mus musculus; gene bought as a synthetic DNA string and cloned into pET28a(+); The tag counts as kept because protein concentration was determined with the molecular weight including the His6-tag and no cleavage step is described; also called MmSAHH; SAHH; source: E. coli BL21-Gold(DE3), purified (nickel-NTA, PD-10 desalting)
B4: S-adenosyl-L-homocysteine hydrolase from Sulfolobus acidocaldarius (enzyme)
chain: MDYRVKDLSLAEQGRKQIEWAELHMPALMEIRKRFNAEKPLDGIRIGAVLHVTKETAVLVETLKAGGAEIALAGSNPLSTQDDVAAGLAKNGIHVYAWRGETEKDYYDNIREILKYEPHVIMDDGGDLHAYVHENNLTSKIVGGTEETTTGVIRLKAMEEEKVLKYPVIAVNNAFTKYLFDNRIGTGQSTIDGILRATNILIAGKVAVVIGYGWVGRGIASRFKGMGARVIVVESSPFRALEALMDGFDVMTMNRASEIGDIFVTATGNLNVVSRDHILRMKDGAVLANSGHFNVEIDVKGLKEISVETREVRQNLEEYKLRNGKRIYLLADGRLVNLVAAEGHPSEVMDLSFCNQALSVEHLIKNKGKLENKVYNVPIEIDEQVARLKLKALGIEIEELTIEQKEYIKQWKYGT
notes: S-adenosyl-L-homocysteine hydrolase (SAHH) of Sulfolobus acidocaldarius; gene bought as a synthetic DNA string and cloned into pET28a(+); The tag counts as kept because protein concentration was determined with the molecular weight including the His6-tag and no cleavage step is described; also called SacSAHH; SAHH; source: E. coli BL21-Gold(DE3), purified (nickel-NTA, PD-10 desalting)

Biological target: the molecule itself
Assay: crystal structure; co-crystals of the purified enzyme with co-purified NAD+ and a nucleoside ligand (inosine, SIH or adenosine), sitting drop vapour diffusion at room temperature or 22 °C; tetramers built in the respective space groups and analysed with PDBePISA

Stoichiometry N, 4:
B1, B2, B3, B4
